From patent publication US20120184020A1, “ENGINEERED MICROORGANISMS WITH ENHANCED FERMENTATION ACTIVITY” (Verdezyne, Inc., priority 2009, published 2012)
“And” between values parts separate entries of the source, which are not always exact repeats. Equal entries are not always repeated.

How the values were obtained:
[1] = Industrial yeast strain BF903 evaluation: aerobic growth and xylose consumption in YP-xylose; format: cell-based, Saccharomyces cerevisiae; settings: commercial yeast strain BF903, YP-xylose with G418, aerobic, 30° C., 7 days
Method: A commercially available industrial diploid strain of Saccharomyces cerevisiae (strain BF903; “Stillspirits” triple distilled yeast, Brewcraft, Albany, New Zealand; available at Hydrobrew, Oceanside, Calif.) was obtained and was made competent for transformation using known yeast cell transformation procedures. […] Transformed yeast containing each construct were grown overnight aerobically in a 15 ml culture tube on YPD media containing 2% glucose. After about 24 hours, about 25 ml of YP media containing 2% glucose and 100 μg/ml G418 was seeded with the cells at an initial OD600 of 0.5 in a 250 ml Erlenmeyer flask and grown aerobically at 30° C. The cultures were then passaged once every 7 days into fresh media, also at an initial OD600 of 0.5.
Measurements were taken of the cell optical density (OD600) to assess cell density and plated onto YPD with 100 μg/ml G418 to ensure that the plasmid was stable. […] The strains were then grown overnight in YPD (with 100 μg/ml G418) and used to inoculate about 50 ml YP-xylose (with 100 μg/ml G418) into disposable 250 ml Erlenmeyer flasks with vented caps at an initial OD600 of about 1. The cultures were allowed to grow aerobically at 30° C. at 200 rpm for 7 days.

[2] = In vivo evaluation of xylose isomerase constructs in C5 strain: xylose fermentation, aerobic then anaerobic; format: cell-based, Saccharomyces cerevisiae; settings: harvest at 372 hours
Excerpt: The engineered strain was designed to include the following genetic modifications: the native Pho13 gene (alkaline phosphatase specific for p-nitrophenyl phosphate) was disrupted by inserting a construct containing the native TLK1 gene (Transketolase-1); the native aldose reductase gene (Gre3) was disrupted by inserting a construct containing the native high-affinity glucose transporter-7 gene (HXT7); the native glucose-repressible alcohol dehydrogenase II gene (adh2) was disrupted by inserting a construct containing the native xylulokinase gene (XYLK); and the native orotidine-5′ phosphate decarboxylase gene (ura3) was disrupted by inserting a construct containing the native transaldolase 1 gene […]. The resulting strain had the following genotype: pho13::TKL1, gre3::HXT7, adh2::XYLK, ura3::TAL1.
The C5 strain was transformed using standard protocols with either p426GPD (as a control) or the chimeric variants XI-R, XI-Rp5, XI-Rp10, or XI-Rp15. The transformed cells were grown on SC-glucose minus uracil initially and then passaged onto SC-xylose minus uracil. Cultures of each of the above constructs were made in SC-xylose minus uracil—and grown for one week. The cultures were grown aerobically at 30° C. with 250 rpm agitation, 1 vvm sparge of process air, 21% O2. The pH was controlled at about 5.0 with 1N NaOH. […] At 24 hours elapsed fermentation time the fermentation was switched to anaerobic conditions. […] Oxygen was purged with 100% N2 sparge at 1 vvm until percent O2 was below 1%. Aeration was then set at 0.25 vvm 100% N2.
The final sample also measured biomass by dry cell weight.

[3] = Xylose isomerase activity/kinetic assay on soluble whole cell extract (sorbitol dehydrogenase coupled, NADH, A340); format: biochemical; settings: xylose isomerase expressed in S. cerevisiae, total soluble crude extract; xylose concentrations between 40 and 500 nM (so in the source); Michaelis Mentin plots
Method: […] Louis, Mo.), and about 2 U sorbitol dehydrogenase (Roche) at about 30° C. […] A Beckman DU-800 was utilized with an Enzyme Mechanism software package (Beckman Coulter, Inc.), and the change in the A340 was monitored for 2-3 minutes.
[…] Louis, Mo.), and 2 U Sorbitol Dehydrogenase (SDH) (Roche, Indianapolis, Ind.) at about 30° C. […] A Beckman DU-800 spectrophotometer was utilized with an Enzyme Mechanism software package (Beckman Coulter, Inc, Brea, Calif.), and the change in the A340 was monitored for 2-3 minutes.
[…] Louis, Mo.), and 2 U sorbitol dehydrogenase (SDH) (Roche, Indianapolis, Ind.) at about 30° C. […] A Beckman DU-800 spectrophotometer was utilized with an Enzyme Mechanism software package (Beckman Coulter, Inc, Brea, Calif.), and the change in the A340 was monitored for 2-3 minutes.
Approximately 20 μg of soluble whole cell extract from each transformed cell line was prepared using Y-PER plus reagent as described above was incubated in a solution containing about 100 mM Tris, pH 7.5, 10 mM MgCl ? 2, 0.15 mM NADH (Sigma, St. Louis, Mo.), and 2 U Sorbitol Dehydrogenase (SDH) (Roche, Indianapolis, Ind.) at about 30° C. […] A Beckman DU-800 spectrophotometer was utilized with an Enzyme Mechanism software package (Beckman Coulter, Inc, Brea, Calif.), and the change in the A340 was monitored for 2-3 minutes.

[4] = Industrial yeast strain: serum bottle (anaerobic) growth and ethanol production on xylose; format: cell-based, Saccharomyces cerevisiae; settings: sealed serum bottles, versus vector only control
Method: The serum bottles were sealed with a butyl rubber stopper to prevent air exchange. As a result, the cultures became anaerobic once the available oxygen in the serum bottle was utilized. In general, anaerobiosis (e.g., the onset of anaerobic conditions) occurred a few hours after the culture was inoculated. Xylose utilization, ethanol production and cell growth were measured every twenty four hours.

[5] = test system: engineered yeast (S. cerevisiae); test: Heterologous xylose isomerase expression in yeast (active yes/no); format: cell-based; settings: xylose isomerase of donor organism expressed in engineered yeast (S. cerevisiae)

B1: Ruminococcus xylose isomerase: native xylose isomerase from Ruminococcus flavefaciens strain 17, SEQ ID NO: 31 (protein, listed as Ruminococcus flavefaciens)
chain: MEFFSNIGKIQYQGPKSTDPLSFKYYNPEEVINGKTMREHLKFALSWWHTMGGDGTDMFGCGTTDKTWGQSDPAARAKAKVDAAFEIMDKLSIDYYCFHDRDLSPEYGSLKATNDQLDIVTDYIKEKQGDKFKCLWGTAKCFDHPRFMHGAGTSPSADVFAFSAAQIKKALESTVKLGGNGYVFWGGREGYETLLNTNMGLELDNMARLMKMAVEYGRSIGFKGDFYIEPKPKEPTKHQYDFDTATVLGFLRKYGLDKDFKMNIEANHATLAQHTFQHELRVARDNGVFGSIDANQGDVLLGWDTDQFPTNIYDTTMCMYEVIKAGGFTNGGLNFDAKARRGSFTPEDIFYSYIAGMDAFALGFRAALKLIEDGRIDKFVADRYASWNTGIGADIIAGKADFASLEKYALEKGEVTASLSSGRQEMLESIVNNVLFSL
[1]
  xylose consumption (FIG. 11): more efficient at consuming xylose than the strain carrying the vector control only
[2]
  Glucose: 0 g/L
[2]; listed as XI-R
  Ethanol: 15.65 g/L and 15.5 g/L
  Xylose: 3.14 g/L and 3.85 g/L
[3]
  Specific Activity: 0.9605 µmol/min/mg
[4]; YP plus xylose
  cell density (FIG. 12): higher cell density
[4]; xylose as a carbon source
  ethanol production (FIG. 12): more ethanol
[5]
  Active? (yes/no): Yes
